B1: BEX1 (parent)
chain: HSLRAVSTDPPHHDHHDEFCLMP
B2: BCL2L13 (parent)
chain: MASSSTVPLGFHYETKYVVLSYLG

Variants of: B1
Assay: protein stability index of a GFP-peptide fusion (GPS, HEK-293T) (PSI 1-6); higher = more stable
Conditions: c terminus: native

Protein stability index: each site, then its substitutions
H13: P 2.23
H12: T 3.57
R4: H 2.76 | Y 2.16 | N 2.64 | D 2.54 | P 2.6 | S 2
H1: V 1.77
V6: E 2.26 | T 1.79 | Q 2.21 | H 1.83 | W 3.53
E18: D 2.6 | P 2.79
D9: I 2.76 | H 1.85 | T 4.07 | Q 3.63
P11: H 2.62
D17: P 2.96
S2: G 2.21 | P 1.93
C20: P 1.97 | Y 2.92
S7: P 2.54 | E 2.32 | K 2.62 | A 1.29
F19: D 2.37 | H 2.8
D14: H 2.62 | T 3.55
L3: P 2.19 | F 2.27
L21: T 2.47 | V 2.53 | D 2.46 | Q 2.14 | P 2.75 | K 2.07 | W 1.92 | N 2.84 | M 2.21 | R 1.99 | G 2.9 | S 2.31 | Y 2.2
M22: K 3.36 | Q 2.83 | F 1.19 | P 2.68 | H 2.01 | C 2.48 | I 2.04 | G 1.79 | S 2.59 | A 2.11 | Y 2.35 | N 2.52 | R 2.74 | D 2.11 | V 2.75 | W 2.48 | E 2.4 | L 1.91 | T 3.4
T8: P 2.14
H16: P 2.78
H15: I 2.19
A5: Y 2 | R 1.68 | P 2.3
P23: W 2.19 | M 2.12 | L 2.66 | K 2.9 | E 3.77 | S 2.77 | Q 2.84 | V 2.19 | G 2.55 | C 2.32 | N 3.49 | H 3.59 | D 4.48 | Y 2.07 | A 2.23 | F 2.41 | T 1.75 | R 2.45

Variants of: B1
Assay: as above
Conditions: c terminus: native
Remark: another data set of the same source

Protein stability index, by site and new letter:
L21: T 3.14 | V 2.66 | Q 3.42 | K 3.1 | W 2.9 | N 3.18 | M 2.39 | R 2.33 | S 3.23 | Y 2.39
M22: K 4 | Q 2.9 | R 3.24 | V 2.95 | W 2.78 | E 3.21
P23: W 2.97 | M 3.17 | L 3.24 | E 4.61 | S 3.56 | V 3.07 | G 3.75 | C 3.58 | N 4.23 | H 3.81 | D 4.52 | A 3.09 | I 2.44 | F 3.35 | T 3.02 | R 3.16

Variants of: B2
Assay: as above
Conditions: c terminus: a fixed tail appended

Protein stability index of substitutions, site by site:
S4: K 2.21 | P 3.27 | E 4.38 | H 2.24 | N 1.7 | M 1.76 | Q 3.25 | A 2.6 | D 2.74 | G 2.49 | I 2.21
M1: W 2.52 | V 2.12 | S 2.15 | R 2.48 | Y 2.09 | F 2.74 | D 3.17 | C 2.59 | Q 1.76 | I 2.51 | E 2.12 | P 2.72 | G 3.23 | K 2.03 | T 2.27 | H 2.59
A2: P 2.49 | M 2.68 | D 2.56 | E 2.06 | T 3.3 | R 2.37 | C 3.03 | L 2.56 | G 2.72 | Q 2.37 | I 1.92 | N 3.27 | F 3.22 | K 2.38 | H 2.74 | S 3.1
S3: P 2.9 | A 2.39 | V 3 | T 3.21 | Y 2.64 | Q 2.21 | F 1.99 | M 2.72 | G 3.46 | N 2.59 | K 2.62 | D 2.57 | I 3.39 | C 2.59 | E 3.48 | H 2.77 | R 2.97
